Where no end group is shown, it is not given here. [ ]: non-standard residue; d: D form. Aib = CC(C)(N)C(=O)O
B1: [Aib8,Glu23,Lys24,Val25,Glu34,Lys35,Aib36,Lys37]-GLP-1-(7-37)-peptidyl-Glu-Phe-Leu amide (peptide)
peptide: H[Aib]EGTFTSDVSSYLEGEKVKEFIAWLVEK[Aib]KEFL-NH2
modifications: N-terminus assumed
SMILES: CC[C@H](C)[C@H](NC(=O)[C@H](Cc1ccccc1)NC(=O)[C@H](CCC(=O)O)NC(=O)[C@H](CCCCN)NC(=O)[C@@H](NC(=O)[C@H](CCCCN)NC(=O)[C@H](CCC(=O)O)NC(=O)CNC(=O)[C@H](CCC(=O)O)NC(=O)[C@H](CC(C)C)NC(=O)[C@H](Cc1ccc(O)cc1)NC(=O)[C@H](CO)NC(=O)[C@H](CO)NC(=O)[C@@H](NC(=O)[C@H](CC(=O)O)NC(=O)[C@H](CO)NC(=O)[C@@H](NC(=O)[C@H](Cc1ccccc1)NC(=O)[C@@H](NC(=O)CNC(=O)[C@H](CCC(=O)O)NC(=O)C(C)(C)NC(=O)[C@@H](N)Cc1c[nH]cn1)[C@@H](C)O)[C@@H](C)O)C(C)C)C(C)C)C(=O)N[C@@H](C)C(=O)N[C@@H](Cc1c[nH]c2ccccc12)C(=O)N[C@@H](CC(C)C)C(=O)N[C@H](C(=O)N[C@@H](CCC(=O)O)C(=O)N[C@@H](CCCCN)C(=O)NC(C)(C)C(=O)N[C@@H](CCCCN)C(=O)N[C@@H](CCC(=O)O)C(=O)N[C@@H](Cc1ccccc1)C(=O)N[C@@H](CC(C)C)C(N)=O)C(C)C
B2: [Ala2,Glu21,Lys29,Val30,Leu31,Glu32,Phe33,Leu34]-Exendin-4-(1-34)-peptide amide (peptide)
peptide: HAEGTFTSDLSKQMEEEAVREFIEWLKNKVLEFL-NH2
B3: [Ala2,Lys17,Ala18,Arg20,Glu21,Leu27,Glu28,Lys29]-Glucagonyl-(1-29)-Val-Lys-Glu-Phe-Leu amide (peptide)
peptide: HAQGTFTSDYSKYLDSKAAREFVQWLLEKVKEFL-NH2
B4: [Aib8,Glu23,Val25,Val29,Gln30,Glu34,Lys35,Aib36,Lys37]-GLP-1-(7-37)-peptidyl-Glu-Phe-Leu amide (peptide)
peptide: H[Aib]EGTFTSDVSSYLEGEAVKEFVQWLVEK[Aib]KEFL-NH2
modifications: N-terminus assumed
SMILES: CC(C)C[C@H](NC(=O)[C@H](Cc1ccccc1)NC(=O)[C@H](CCC(=O)O)NC(=O)[C@H](CCCCN)NC(=O)C(C)(C)NC(=O)[C@H](CCCCN)NC(=O)[C@H](CCC(=O)O)NC(=O)[C@@H](NC(=O)[C@H](CC(C)C)NC(=O)[C@H](Cc1c[nH]c2ccccc12)NC(=O)[C@H](CCC(N)=O)NC(=O)[C@@H](NC(=O)[C@H](Cc1ccccc1)NC(=O)[C@H](CCC(=O)O)NC(=O)[C@H](CCCCN)NC(=O)[C@@H](NC(=O)[C@H](C)NC(=O)[C@H](CCC(=O)O)NC(=O)CNC(=O)[C@H](CCC(=O)O)NC(=O)[C@H](CC(C)C)NC(=O)[C@H](Cc1ccc(O)cc1)NC(=O)[C@H](CO)NC(=O)[C@H](CO)NC(=O)[C@@H](NC(=O)[C@H](CC(=O)O)NC(=O)[C@H](CO)NC(=O)[C@@H](NC(=O)[C@H](Cc1ccccc1)NC(=O)[C@@H](NC(=O)CNC(=O)[C@H](CCC(=O)O)NC(=O)C(C)(C)NC(=O)[C@@H](N)Cc1c[nH]cn1)[C@@H](C)O)[C@@H](C)O)C(C)C)C(C)C)C(C)C)C(C)C)C(N)=O
B5: [Aib8,Glu23,Lys24,Val25,Glu34,Aib36,Lys37]-GLP-1-(7-37)-peptidyl-Glu-Phe-Leu amide (peptide)
peptide: H[Aib]EGTFTSDVSSYLEGEKVKEFIAWLVEG[Aib]KEFL-NH2
modifications: N-terminus assumed
SMILES: CC[C@H](C)[C@H](NC(=O)[C@H](Cc1ccccc1)NC(=O)[C@H](CCC(=O)O)NC(=O)[C@H](CCCCN)NC(=O)[C@@H](NC(=O)[C@H](CCCCN)NC(=O)[C@H](CCC(=O)O)NC(=O)CNC(=O)[C@H](CCC(=O)O)NC(=O)[C@H](CC(C)C)NC(=O)[C@H](Cc1ccc(O)cc1)NC(=O)[C@H](CO)NC(=O)[C@H](CO)NC(=O)[C@@H](NC(=O)[C@H](CC(=O)O)NC(=O)[C@H](CO)NC(=O)[C@@H](NC(=O)[C@H](Cc1ccccc1)NC(=O)[C@@H](NC(=O)CNC(=O)[C@H](CCC(=O)O)NC(=O)C(C)(C)NC(=O)[C@@H](N)Cc1c[nH]cn1)[C@@H](C)O)[C@@H](C)O)C(C)C)C(C)C)C(=O)N[C@@H](C)C(=O)N[C@@H](Cc1c[nH]c2ccccc12)C(=O)N[C@@H](CC(C)C)C(=O)N[C@H](C(=O)N[C@@H](CCC(=O)O)C(=O)NCC(=O)NC(C)(C)C(=O)N[C@@H](CCCCN)C(=O)N[C@@H](CCC(=O)O)C(=O)N[C@@H](Cc1ccccc1)C(=O)N[C@@H](CC(C)C)C(N)=O)C(C)C
B6: [Aib8,Glu23,Val25,Glu34,Lys35,Aib36,Lys37]-GLP-1-(7-37)-peptidyl-Glu-Phe amide (peptide)
peptide: H[Aib]EGTFTSDVSSYLEGEAVKEFIAWLVEK[Aib]KEF-NH2
modifications: N-terminus assumed
SMILES: CC[C@H](C)[C@H](NC(=O)[C@H](Cc1ccccc1)NC(=O)[C@H](CCC(=O)O)NC(=O)[C@H](CCCCN)NC(=O)[C@@H](NC(=O)[C@H](C)NC(=O)[C@H](CCC(=O)O)NC(=O)CNC(=O)[C@H](CCC(=O)O)NC(=O)[C@H](CC(C)C)NC(=O)[C@H](Cc1ccc(O)cc1)NC(=O)[C@H](CO)NC(=O)[C@H](CO)NC(=O)[C@@H](NC(=O)[C@H](CC(=O)O)NC(=O)[C@H](CO)NC(=O)[C@@H](NC(=O)[C@H](Cc1ccccc1)NC(=O)[C@@H](NC(=O)CNC(=O)[C@H](CCC(=O)O)NC(=O)C(C)(C)NC(=O)[C@@H](N)Cc1c[nH]cn1)[C@@H](C)O)[C@@H](C)O)C(C)C)C(C)C)C(=O)N[C@@H](C)C(=O)N[C@@H](Cc1c[nH]c2ccccc12)C(=O)N[C@@H](CC(C)C)C(=O)N[C@H](C(=O)N[C@@H](CCC(=O)O)C(=O)N[C@@H](CCCCN)C(=O)NC(C)(C)C(=O)N[C@@H](CCCCN)C(=O)N[C@@H](CCC(=O)O)C(=O)N[C@@H](Cc1ccccc1)C(N)=O)C(C)C
B7: [Glu23,Val25,Glu34,Lys35,Val36,Lys37]-GLP-1-(7-37)-peptidyl-Glu-Phe-Leu amide (peptide)
peptide: HAEGTFTSDVSSYLEGEAVKEFIAWLVEKVKEFL-NH2
B8: [Aib8,Glu23,Val25,Glu34,Lys35,Aib36,Lys37]-GLP-1-(7-37)-peptidyl-Glu amide (peptide)
peptide: H[Aib]EGTFTSDVSSYLEGEAVKEFIAWLVEK[Aib]KE-NH2
modifications: N-terminus assumed
SMILES: CC[C@H](C)[C@H](NC(=O)[C@H](Cc1ccccc1)NC(=O)[C@H](CCC(=O)O)NC(=O)[C@H](CCCCN)NC(=O)[C@@H](NC(=O)[C@H](C)NC(=O)[C@H](CCC(=O)O)NC(=O)CNC(=O)[C@H](CCC(=O)O)NC(=O)[C@H](CC(C)C)NC(=O)[C@H](Cc1ccc(O)cc1)NC(=O)[C@H](CO)NC(=O)[C@H](CO)NC(=O)[C@@H](NC(=O)[C@H](CC(=O)O)NC(=O)[C@H](CO)NC(=O)[C@@H](NC(=O)[C@H](Cc1ccccc1)NC(=O)[C@@H](NC(=O)CNC(=O)[C@H](CCC(=O)O)NC(=O)C(C)(C)NC(=O)[C@@H](N)Cc1c[nH]cn1)[C@@H](C)O)[C@@H](C)O)C(C)C)C(C)C)C(=O)N[C@@H](C)C(=O)N[C@@H](Cc1c[nH]c2ccccc12)C(=O)N[C@@H](CC(C)C)C(=O)N[C@H](C(=O)N[C@@H](CCC(=O)O)C(=O)N[C@@H](CCCCN)C(=O)NC(C)(C)C(=O)N[C@@H](CCCCN)C(=O)N[C@@H](CCC(=O)O)C(N)=O)C(C)C

These binders were tested against human GLP-1 receptor (human, UniProt P43220) (assay: cell-based or functional assay).
For B1, the “CRE luciferase EC50, 0% HSA” value was 0.487 nM and the “CRE luciferase EC50, 1% HSA” value was 0.174 nM.
For B2, the “CRE luciferase EC50, 0% HSA” value was 0.031 nM and the “CRE luciferase EC50, 1% HSA” value was 0.02 nM.
B3 was tested, and the “CRE luciferase EC50, 0% HSA” value was 0.971 nM and the “CRE luciferase EC50, 1% HSA” value was 0.231 nM.
B4 was tested, and the “CRE luciferase EC50, 0% HSA” value was 0.126 nM and the “CRE luciferase EC50, 1% HSA” value was 0.037 nM.
B5 was tested, and the “CRE luciferase EC50, 0% HSA” value was 0.461 nM and the “CRE luciferase EC50, 1% HSA” value was 0.111 nM.
B6 was tested, and the “CRE luciferase EC50, 0% HSA” value was 0.022 nM and the “CRE luciferase EC50, 1% HSA” value was 0.015 nM.
B7 was tested, and the “CRE luciferase EC50, 0% HSA” value was 0.44 nM and the “CRE luciferase EC50, 1% HSA” value was 0.171 nM.
For B8, the “CRE luciferase EC50, 0% HSA” value was 0.014 nM and the “CRE luciferase EC50, 1% HSA” value was 0.005 nM.

From patent publication US20150344540A1, “NOVEL GLP-1 RECEPTOR AGONISTS WITH CHOLESTEROL EFFLUX ACTIVITY” (NOVO NORDISK A/S, priority 2012, published 2015)
